According to publication PMC7544621 (Structure (London, England : 1993), 2020):

Molecular target: T1, monomeric head domain of HA from H1 A/Solomon Islands/03/2006 (Influenza A virus A/Solomon …)
T1 chain: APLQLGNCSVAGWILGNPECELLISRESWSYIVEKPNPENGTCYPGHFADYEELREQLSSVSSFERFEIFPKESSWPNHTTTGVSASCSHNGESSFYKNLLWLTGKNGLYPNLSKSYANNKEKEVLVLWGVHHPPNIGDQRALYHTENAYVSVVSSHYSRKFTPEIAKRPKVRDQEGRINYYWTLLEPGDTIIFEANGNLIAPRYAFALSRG
Experiment: BLI

B1: C05 IgG (anti-influenza human mAb C05) (antibody, V domains shown)
VH: QVQLQESGGGLVQPGESLRLSCVGSGSSFGESTLSYYAVSWVRQAPGKGLEWLSIINAGGGDIDYADSVEGRFTISRDNSKETLYLQMTNLRVEDTGVYYCAKHMSMQQVVSAGWERADLVGDAFDVWGQGTMVTVSS
VL: DIQLTQSPSSLSASVGDRVTLTCQASQDIRKFLNWYQQKPGKGPKLLIYDASNLQRGVPSRFSGGGSGTDFTLIISSLQPEDVGTYYCQQYDGLPFTFGGGTKVVIK
  Kd: 88 nM
